These results are taken from patent US20260250381A1.

To fix the notation:
T1: human TREM2 (human) (UniProt Q9NZC2)
T1 sequence (looked up): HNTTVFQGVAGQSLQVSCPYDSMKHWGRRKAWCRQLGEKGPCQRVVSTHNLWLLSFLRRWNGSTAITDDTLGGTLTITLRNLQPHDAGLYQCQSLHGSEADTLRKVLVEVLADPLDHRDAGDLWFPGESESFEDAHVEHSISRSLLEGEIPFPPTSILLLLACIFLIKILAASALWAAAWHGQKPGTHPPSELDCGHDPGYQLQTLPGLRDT

B1: 6E7 variant V88 (antibody, V domains shown)
VH: EVQLVQSGAEVKKPGESLKISCKGSGYSFGSYWIAWVRQMPGKGLEWMGIIYPGDSDTRYSPSFQGQVTISADKSISTAYLQWSSLKASDTAMYFCARQRTFYYDSSDYFDYWGQGTLVTVSS
VL: DIQMTQSPSSVSASVGDRVTITCRASQGISSWLAWYQQKPGKAPKLLIYAASRLQRGVPSRFSGSGSGTDFTLTISSLQPEDFATYFCQQADSSPRTFGQGTKLEIK
B2: 6E7 variant V29 (antibody, V domains shown)
VH: B1 VH with G30K
VL: B1 VL with R53S, R56N, S94F
B3: 6E7 variant V89 (antibody, V domains shown)
VH: B1 VH with G30T
VL: B1 VL with R53S, R56N, S94H
B4: 6E7 variant V28 (antibody, V domains shown)
VH: B1 VH with G30Q, I50T, Y103F
VL: B1 VL with R53S, R56S, S94L
B5: 6E7 variant V17 (antibody, V domains shown)
VH: B1 VH with Q99S
VL: B1 VL with R53S, L54R, R56N
B6: 6E7 variant V24 (antibody, V domains shown)
VH: B1 VH with G30T, T58V, Q99S
VL: B1 VL with R53S, R56K, S94F, R96H
B7: 6E7 variant V25 (antibody, V domains shown)
VH: B1 VH with I50L, Q99S
VL: B1 VL with R53S, Q55A, R56N, S94M
B8: 6E7 variant V5 (antibody, V domains shown)
VH: B1 VH with G30T, I50T
VL: B1 VL with R53S, R56N, S94H
B9: 6E7 variant V15 (antibody, V domains shown)
VH: B1 VH with G30A, I50T, Q99S
VL: B1 VL with R53W, R56N, S94Y
B10: 6E7 variant V13 (antibody, V domains shown)
VH: B1 VH with P62A, Q99G
VL: B1 VL with R53S, R56G, S94M
B11: 6E7 variant V27 (antibody, V domains shown)
VH: B1 VH with G30T, S61A, A97V, Q99S
VL: B1 VL with R53S, S94F
B12: 6E7 variant V16 (antibody, V domains shown)
VH: B1 VH with F29M, G30T, S56G, Q99S
VL: B1 VL with R53N, R56N, S94F
B13: 6E7 variant V14 (antibody, V domains shown)
VH: B1 VH with S56Q, Q99G
VL: B1 VL with R56N, S94F
B14: 6E7 variant V4 (antibody, V domains shown)
VH: B1 VH with Y60V, Q99S
VL: B1 VL with R56N, S94Y
B15: 6E7 variant V26 (antibody, V domains shown)
VH: B1 VH with G30T, A35G, I50T, F102M, Y112A
VL: B1 VL with R53S, S94Y

Positions count from the first letter of the chain named.

The first test deals with T1, human TREM2 (human). The test is described as follows: 1st screen, 10 nM Ab.
In the case of B1, the Binding Signal (fold over 6E7 parental antibody) turned out to be 4.92 fold.
As for B2, the Binding Signal (fold over 6E7 parental antibody) came to 1.53 fold.
B3: the Binding Signal (fold over 6E7 parental antibody) is 1.33 fold.
With B4, the Binding Signal (fold over 6E7 parental antibody) was 3.08 fold.
Consider B5, for which the Binding Signal (fold over 6E7 parental antibody) worked out at 5.37 fold.
On the same count and under the same terms, with B6 the figure was 2.64 fold; with B7, 4.23 fold.
For B8, the Binding Signal (fold over 6E7 parental antibody) is 2.73 fold.
In the case of B9, the Binding Signal (fold over 6E7 parental antibody) was 5.23 fold.
Turning to B10, the Binding Signal (fold over 6E7 parental antibody) was 1.31 fold.
With B11, the Binding Signal (fold over 6E7 parental antibody) was 5.5 fold.
Still for that read-out and setting: as for B12, the figure is 4.01 fold; as for B13, 4.71 fold; as for B14, 6 fold.
Take B15: the Binding Signal (fold over 6E7 parental antibody) was determined as 3.57 fold.

The target of the next test is T1, human TREM2 (human). The experiment in a line: 2nd screen, 10 nM Ab.
Consider B1, for which the Binding Signal (fold over 6E7 parental antibody) worked out at 5.3 fold.
On the same count and under the same terms, with B2 the figure was 1.67 fold.
As for B3, the Binding Signal (fold over 6E7 parental antibody) was 1.46 fold.
The same measure, in the same setting: with B4 the figure was 3.61 fold.
As to B5, the Binding Signal (fold over 6E7 parental antibody) is 5.51 fold.
On the same count and under the same terms, with B6 the figure was 2.9 fold; with B7, 4.7 fold.
With B8, the Binding Signal (fold over 6E7 parental antibody) is 2.84 fold.
Still for that read-out and setting: as for B9, the figure is 4.78 fold.
As for B10, the Binding Signal (fold over 6E7 parental antibody) was found to be 1.35 fold.
As for B11, the Binding Signal (fold over 6E7 parental antibody) is 5.69 fold.
Same read-out and setting: as for B12, the figure is 4.04 fold; as for B13, 4.64 fold.
B14: the Binding Signal (fold over 6E7 parental antibody) was 5.51 fold.
Take B15: the Binding Signal (fold over 6E7 parental antibody) came out at 3.47 fold.

For another test, the target named is T1, human TREM2 (human). The test is described as follows: 2nd screen, 2 nM Ab.
Turning to B1, the Binding Signal (fold over 6E7 parental antibody) was found to be 5.57 fold.
Consider B2, for which the Binding Signal (fold over 6E7 parental antibody) was 0.84 fold.
Consider B3, for which the Binding Signal (fold over 6E7 parental antibody) amounted to 0.94 fold.
In the case of B4, the Binding Signal (fold over 6E7 parental antibody) stood at 2.63 fold.
On the same count and under the same terms, with B5 the figure was 4.22 fold.
Still for that read-out and setting: with B6 the figure was 1.42 fold.
On the same count and under the same terms, with B7 the figure was 3.15 fold; with B8, 1.25 fold; with B9, 4.72 fold.
For B10, the Binding Signal (fold over 6E7 parental antibody) worked out at 1.15 fold.
Turning to B11, the Binding Signal (fold over 6E7 parental antibody) came to 5.67 fold.
Regarding B12, the Binding Signal (fold over 6E7 parental antibody) stood at 3.57 fold.
On to B13, for which the Binding Signal (fold over 6E7 parental antibody) turned out to be 2.57 fold.
As to B14, the Binding Signal (fold over 6E7 parental antibody) came out at 5.88 fold.
Take B15: the Binding Signal (fold over 6E7 parental antibody) worked out at 2.83 fold.
